Earlier results, collected in patent publication US10373702B2, “Water-soluble trans-membrane proteins and methods for the preparation and use thereof” (Massachusetts Institute of Technology, priority 2014, dated 2019).

Molecular target: SDF1a (Homo sapiens, UniProt P48061)
Details: native membrane-bound receptor with SDF1a

Chain of SDF1a (P48061 22-89 limits assumed, species assumed): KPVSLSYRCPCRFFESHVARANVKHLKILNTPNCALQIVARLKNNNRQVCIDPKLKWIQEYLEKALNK
Chain of SDF1a (P61073 whole entry partner, species assumed): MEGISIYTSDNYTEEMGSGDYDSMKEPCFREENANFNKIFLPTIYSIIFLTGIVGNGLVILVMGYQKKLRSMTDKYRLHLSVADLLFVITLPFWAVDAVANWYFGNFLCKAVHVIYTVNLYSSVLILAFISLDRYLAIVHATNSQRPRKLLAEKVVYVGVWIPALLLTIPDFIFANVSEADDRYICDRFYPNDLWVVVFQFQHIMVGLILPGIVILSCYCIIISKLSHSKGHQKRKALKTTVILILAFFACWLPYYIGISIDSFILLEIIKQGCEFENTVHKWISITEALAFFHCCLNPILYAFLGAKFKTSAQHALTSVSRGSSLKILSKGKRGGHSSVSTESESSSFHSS

- Kd: ~100 nM
B1: CXCR4: native CXC chemokine receptor type 4 isoform a, 356 amino acids (protein)
chain: MSIPLPLLQIYTSDNYTEEMGSGDYDSMKEPCFREENANFNKIFLPTIYSIIFLTGIVGNGLVILVMGYQKKLRSMTDKYRLHLSVADLLFVITLPFWAVDAVANWYFGNFLCKAVHVIYTVNLYSSVLILAFISLDRYLAIVHATNSQRPRKLLAEKVVYVGVWIPALLLTIPDFIFANVSEADDRYICDRFYPNDLWVVVFQFQHIMVGLILPGIVILSCYCIIISKLSHSKGHQKRKALKTTVILILAFFACWLPYYIGISIDSFILLEIIKQGCEFENTVHKWISITEALAFFHCCLNPILYAFLGAKFKTSAQHALTSVSRGSSLKILSKGKRGGHSSVSTESESSSFHSS
